The values below come from paper doi:10.1101/197848.

This test deals with Xenopus Smc3R626C-Halo (subunit of the hinge-substituted recombinant tetramer, not crosslinked) (Xenopus) (UniProt O93309). The experiment in a line: cross-linking.

Regarding “Xenopus Smc1D566C (subunit of the hinge-substituted recombinant tetramer) (from UniProt O93308 1-1232) (natural protein)”, the crosslinking efficiency was found to be 40%.
